In US20240116985A1 (published 2024):
Each block holds one binder with its values, some of them ahead of it. Starred links: 1 amine or outer side, 2 acyl side, 3 side chain; linkers in the order of their positions; H or OH if unused. Positions of bridges follow the written chain, without caps; N, C: chain ends. Non-standard residues stand in square brackets, D forms with d. Primed or numbered codes have the meaning given here. *: point of attachment. (CCpCO2H)TriAzDap = (S)-1-(1-(2-amino-2-carboxyethyl)-1H-1,2,3-triazol-4-yl)cyclopropane-1-carboxylic acid, O=C([C@H](Cn1cc(C2(C(=O)[*:3])CC2)nn1)N[*:1])[*:2]; B5(10) = 2-amino-2-(pent-4-en-1-yl)hept-6-enoic acid, bis(4-pentenyl)glycine, stitching residue bearing both staples, C=CCCCC(CCCC=C)(N[*:1])C(=O)[*:2]; PyrS2″ = (S)-3-amino-1-((pent-4-en-1-yloxy)carbonyl)pyrrolidine-3-carboxylic acid (stapling residue), C=CCCCOC(=O)N1CC[C@@](N[*:1])(C(=O)[*:2])C1; B5(4) = 2,2-bis(4-pentenyl)glycine = 2-amino-2-(pent-4-en-1-yl)hept-6-enoic acid (stitching residue), C=CCCCC(CCCC=C)(N[*:1])C(=O)[*:2]; B5(5) = 2,2-bis(4-pentenyl)glycine, 2-amino-2-(pent-4-en-1-yl)hept-6-enoic acid (stitching residue), C=CCCCC(CCCC=C)(N[*:1])C(=O)[*:2]; PyrS2 = (S)-3-amino-1-((pent-4-en-1-yloxy)carbonyl)pyrrolidine-3-carboxylic acid, C=CCCCOC(=O)N1CC[C@@](N[*:1])(C(=O)[*:2])C1; Phe(3-COOH) = N[C@@H](Cc1cccc(C(=O)O)c1)C(=O)O; Bta = N[C@@H](Cc1csc2ccccc12)C(=O)O; αAllylPro = C=CC[C@@]1(C(=O)O)CCCN1; tBuAla = CC(C)(C)C[C@H](N)C(=O)O; 3Thi = N[C@@H](Cc1ccsc1)C(=O)O; S8 = C=CCCCCCC[C@](C)(N)C(=O)O; PyrS2(4) = not defined here; Aib = CC(C)(N)C(=O)O; Ms = CS(=O)(=O)*

Tests used:
[1] = molecular target: T1, B-cat-Halo (beta-catenin HaloTag fusion expressed in HEK293 cells) (Homo sapiens (Human), UniProt P35222 1-781); assay: cell-based or functional assay
T1 sequence: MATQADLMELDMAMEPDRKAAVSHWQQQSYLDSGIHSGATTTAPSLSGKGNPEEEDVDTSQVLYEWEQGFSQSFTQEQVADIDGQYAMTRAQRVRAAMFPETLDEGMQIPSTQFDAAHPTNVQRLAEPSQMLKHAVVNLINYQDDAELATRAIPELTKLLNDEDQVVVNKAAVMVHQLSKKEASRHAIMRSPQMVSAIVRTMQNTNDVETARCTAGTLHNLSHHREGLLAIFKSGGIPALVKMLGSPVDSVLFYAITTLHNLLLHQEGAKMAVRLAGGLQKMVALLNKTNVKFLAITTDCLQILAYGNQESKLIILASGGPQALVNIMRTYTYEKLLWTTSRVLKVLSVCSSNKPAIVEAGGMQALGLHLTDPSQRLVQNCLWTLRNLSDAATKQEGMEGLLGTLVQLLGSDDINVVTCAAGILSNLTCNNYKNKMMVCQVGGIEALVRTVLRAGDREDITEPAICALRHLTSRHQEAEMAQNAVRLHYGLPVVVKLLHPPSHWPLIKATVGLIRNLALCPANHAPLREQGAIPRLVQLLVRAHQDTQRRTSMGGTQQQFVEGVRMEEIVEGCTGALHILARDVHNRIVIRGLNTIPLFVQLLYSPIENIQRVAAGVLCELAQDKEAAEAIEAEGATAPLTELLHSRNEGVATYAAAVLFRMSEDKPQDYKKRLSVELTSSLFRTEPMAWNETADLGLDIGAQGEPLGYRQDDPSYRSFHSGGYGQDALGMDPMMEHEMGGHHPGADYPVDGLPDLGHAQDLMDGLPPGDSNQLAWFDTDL

[2] = molecular target: T2, beta-catenin in DLD1 TCF/LEF luciferase reporter cells (UniProt P35222 1-781); assay: cell-based or functional assay
T2 sequence (looked up): T1 sequence

[3] = molecular target: T3, full-length beta-Catenin (Uniprot ID P35222) (Homo sapiens (Human), UniProt P35222 2-781); assay: fluorescence polarization competition; full-length beta-catenin + 5FAM-TCF4 10-53 probe
T3 construct: The FP protocol says 'full-length beta-Catenin (Uniprot ID P35222)'; also called bCat; B-Catenin
T3 sequence: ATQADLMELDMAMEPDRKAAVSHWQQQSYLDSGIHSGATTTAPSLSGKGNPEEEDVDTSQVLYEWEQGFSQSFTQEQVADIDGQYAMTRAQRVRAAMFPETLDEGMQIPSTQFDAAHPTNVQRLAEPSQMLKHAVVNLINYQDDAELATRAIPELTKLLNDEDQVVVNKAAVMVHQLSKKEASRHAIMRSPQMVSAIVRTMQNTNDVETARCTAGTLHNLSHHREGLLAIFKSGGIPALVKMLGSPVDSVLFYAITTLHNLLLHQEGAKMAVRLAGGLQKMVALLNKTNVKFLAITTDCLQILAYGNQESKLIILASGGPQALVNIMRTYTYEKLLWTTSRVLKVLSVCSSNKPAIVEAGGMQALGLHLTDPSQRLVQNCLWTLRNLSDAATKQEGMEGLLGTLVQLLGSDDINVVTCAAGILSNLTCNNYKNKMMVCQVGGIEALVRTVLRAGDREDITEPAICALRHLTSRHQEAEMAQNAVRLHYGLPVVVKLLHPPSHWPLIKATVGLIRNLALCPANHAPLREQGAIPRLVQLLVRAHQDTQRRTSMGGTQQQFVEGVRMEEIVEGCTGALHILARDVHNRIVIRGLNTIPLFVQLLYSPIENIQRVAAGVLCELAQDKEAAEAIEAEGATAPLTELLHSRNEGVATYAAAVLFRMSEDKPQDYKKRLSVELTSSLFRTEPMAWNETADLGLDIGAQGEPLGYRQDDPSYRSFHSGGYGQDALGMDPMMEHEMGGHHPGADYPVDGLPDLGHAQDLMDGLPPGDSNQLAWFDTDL
Procedure: (§1) The plate was incubated protected from light for 60 minutes at 20° C. prior to read. Reads were performed on a CLARIOstar plate reader (BMG Labtech) in duplicate, and data were fitted to a 1:1 binding model with hill slope using an in-house script. All provided concentrations are final concentrations.

[4] = molecular target: T4, full-length beta-Catenin (Uniprot ID P35222) (Homo sapiens (Human), UniProt P35222 1-781); assay: fluorescence polarization competition against 5FAM-TCF4(10-53) on full-length beta-catenin
T4 construct: also called bCat
T4 sequence: T1 sequence
Procedure: as §1

[5] = molecular target: T5, full-length beta-Catenin (Uniprot ID P35222) (Homo sapiens (Human), UniProt P35222 2-781); assay: fluorescence polarization competition; full-length beta-catenin + 5FAM-TCF4(10-53) probe; peptide titrated
T5 construct: The fluorescence polarization protocol says only 'full-length'; also called bCat; B-Catenin
T5 sequence: T3 sequence
Procedure: as §1

[6] = molecular target: T6, B-cat-Halo (beta-catenin HaloTag construct transfected into HEK293 cells) (UniProt P35222 1-781); assay: cell-based or functional assay
T6 sequence (looked up): T1 sequence

[7] = molecular target: T7, beta-catenin in DLD1 TCF/LEF luciferase reporter cells (UniProt P35222 1-781); assay: cell-based or functional assay; remark: listed apart in the source
T7 sequence (looked up): T1 sequence

B4: I-711 (peptide)
peptide: Ms-[αAllylPro]DI[B5(5)]DEAAFQ[S8]F[Bta]Q-NH2
modifications: staple 1-4, 4-11
notes: Stapled peptide composition; Later-eluting HPLC isomer peak (I-710 is the earlier one); also called MeSO2-PL3-Asp-Ile-B5-Asp-Glu-Ala-Ala-Phe-Gln-S8-Phe-BztA-Gln-NH2
EC50 [5]: 88 nM

B5: I-1920 (peptide)
peptide: Ac-[αAllylPro]D[tBuAla][B5(4)]D[Phe(3-COOH)][Aib]AFL[PyrS2(4)][3Thi][Bta]A-NH2
modifications: staple 1-4, 4-11; not fully specified; printed as Ac-PL3-Asp-Npg-B5-Asp-3COOHF-Aib-Ala-Phe-Leu-PyrS2-3Thi-BztA-Ala-NH2; reading uncertain
NanoBRET Abs IC50 [6]: 3.1 µM
DLD1 4% Abs IC50 [7]: 1.2 µM

B6: I-1286 (peptide)
peptide: Ac-[αAllylPro]NA[B5(10)]DTAAFL[PyrS2]F[Bta]Q-NH2
modifications: staple 1-4, 4-11; not fully specified; printed as Ac-PL3-Asn-Ala-B5-Asp-Thr-Ala-Ala-Phe-Leu-PyrS2-Phe-BztA-Gln-NH2
notes: Stapled peptide
IC50 [4]: 10 µM

B7: I-710 (peptide)
peptide: Ms-[αAllylPro]DI[B5(5)]DEAAFQ[S8]F[Bta]Q-NH2
modifications: staple 1-4, 4-11
notes: Stapled peptide composition; also called MeSO2-PL3-Asp-Ile-B5-Asp-Glu-Ala-Ala-Phe-Gln-S8-Phe-BztA-Gln-NH2
EC50 [5]: 73 nM

Second part, the binder after the results:

NanoBRET Abs IC50 [1]: 17.1 µM
DLD1 4% Abs IC50 [2]: 9.5 µM
B1: I-2445 (peptide)
peptide: Ac-[αAllylPro]D[tBuAla][B5(5)]D[(CCpCO2H)TriAzDap]AAFL[PyrS2″][3Thi][Bta]Q-NH2
modifications: staple 1-4, 4-11; not fully specified; printed as Ac-PL3-Asp-Npg-B5-Asp-[CCpCO2H]TriAzDap-Ala-Ala-Phe-Leu-PyrS2-3Thi-BztA-Gln-NH2

IC50 [3]: 10 µM
B2: I-1295 (peptide)
peptide: Ac-[αAllylPro]DA[B5(10)]NTAAFL[PyrS2]F[Bta]Q-NH2
modifications: staple 1-4, 4-11; not fully specified; printed as Ac-PL3-Asp-Ala-B5-Asn-Thr-Ala-Ala-Phe-Leu-PyrS2-Phe-BztA-Gln-NH2
notes: earlier eluting HPLC peak (staple isomer composition); also called Ac-PL3-Asp-Ala-B5-Asn-Thr-Ala-Ala-Phe-Leu-PyrS2-Phe-BztA-Gln-NH2

IC50 [4]: 10 µM
B3: I-1287 (peptide)
peptide: Ac-[αAllylPro]NA[B5(10)]DTAAFL[PyrS2]F[Bta]Q-NH2
modifications: staple 1-4, 4-11; not fully specified; printed as Ac-PL3-Asn-Ala-B5-Asp-Thr-Ala-Ala-Phe-Leu-PyrS2-Phe-BztA-Gln-NH2
notes: Stapled peptide

NanoBRET Abs IC50 [6]: 4 µM
DLD1 4% Abs IC50 [7]: 6.5 µM
B8: I-1918 (peptide)
peptide: Ac-[αAllylPro]D[tBuAla][B5(4)]D[Phe(3-COOH)]QAFL[PyrS2(4)][3Thi][Bta]A-NH2
modifications: staple 1-4, 4-11; not fully specified; printed as Ac-PL3-Asp-Npg-B5-Asp-3COOHF-Gln-Ala-Phe-Leu-PyrS2-3Thi-BztA-Ala-NH2; reading uncertain
